This experiment concerns the target vinc_mouse Vcl (UniProt Q64727).

Sequence of vinc_mouse Vcl (Q64727 whole entry): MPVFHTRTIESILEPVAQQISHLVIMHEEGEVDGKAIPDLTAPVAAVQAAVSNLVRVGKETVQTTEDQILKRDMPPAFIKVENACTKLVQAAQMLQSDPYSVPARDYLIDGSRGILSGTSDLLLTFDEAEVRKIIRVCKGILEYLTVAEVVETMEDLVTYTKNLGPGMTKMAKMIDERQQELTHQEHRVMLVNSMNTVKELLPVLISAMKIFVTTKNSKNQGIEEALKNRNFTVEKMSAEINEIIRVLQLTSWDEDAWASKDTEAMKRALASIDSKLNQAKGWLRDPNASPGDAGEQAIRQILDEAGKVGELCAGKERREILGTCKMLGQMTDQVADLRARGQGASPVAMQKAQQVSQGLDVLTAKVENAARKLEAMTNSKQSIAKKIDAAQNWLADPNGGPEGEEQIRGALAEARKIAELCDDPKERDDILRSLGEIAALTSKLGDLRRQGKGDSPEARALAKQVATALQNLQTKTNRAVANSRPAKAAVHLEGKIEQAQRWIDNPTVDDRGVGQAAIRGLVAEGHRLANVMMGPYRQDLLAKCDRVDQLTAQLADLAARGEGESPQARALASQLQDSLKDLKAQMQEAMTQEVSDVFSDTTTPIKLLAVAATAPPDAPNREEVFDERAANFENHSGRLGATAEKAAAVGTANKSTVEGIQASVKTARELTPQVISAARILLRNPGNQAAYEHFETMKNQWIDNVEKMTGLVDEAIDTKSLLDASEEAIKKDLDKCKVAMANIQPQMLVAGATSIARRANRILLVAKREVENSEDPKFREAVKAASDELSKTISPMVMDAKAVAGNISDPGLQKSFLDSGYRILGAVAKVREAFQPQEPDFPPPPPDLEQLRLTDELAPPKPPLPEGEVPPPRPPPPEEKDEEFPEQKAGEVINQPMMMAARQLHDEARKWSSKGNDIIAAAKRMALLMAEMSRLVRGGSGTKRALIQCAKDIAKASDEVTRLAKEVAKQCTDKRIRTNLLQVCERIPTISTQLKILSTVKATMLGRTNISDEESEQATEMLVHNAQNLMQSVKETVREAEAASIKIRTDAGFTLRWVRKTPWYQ
Sequence of Paxillin (Gallus gallus (Chicken)), P49024 Y31E;Y118E (P49024 whole entry Y31E/Y118E): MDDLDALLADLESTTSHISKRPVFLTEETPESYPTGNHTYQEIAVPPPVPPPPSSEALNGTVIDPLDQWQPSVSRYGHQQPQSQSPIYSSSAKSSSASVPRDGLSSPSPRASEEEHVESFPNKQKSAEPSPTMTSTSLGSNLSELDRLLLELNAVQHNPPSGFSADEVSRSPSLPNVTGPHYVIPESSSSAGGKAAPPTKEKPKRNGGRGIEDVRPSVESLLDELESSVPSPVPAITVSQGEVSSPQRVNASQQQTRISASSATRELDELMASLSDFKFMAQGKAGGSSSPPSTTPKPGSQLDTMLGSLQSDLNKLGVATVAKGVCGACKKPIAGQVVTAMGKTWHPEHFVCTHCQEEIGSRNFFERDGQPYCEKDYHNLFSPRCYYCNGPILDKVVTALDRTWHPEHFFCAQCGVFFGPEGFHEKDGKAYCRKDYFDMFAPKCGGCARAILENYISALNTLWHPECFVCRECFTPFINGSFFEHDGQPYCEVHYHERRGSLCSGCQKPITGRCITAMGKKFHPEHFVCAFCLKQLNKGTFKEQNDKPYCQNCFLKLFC
Sequence of Paxillin (Gallus gallus (Chicken)), P49024 Y31F;Y118F (P49024 whole entry Y31F/Y118F): as the sequence (P49024 whole entry Y31E/Y118E) above, with E31F, E118F counted along it

Turning to “Paxillin (Gallus gallus (Chicken)), P49024 Y31F;Y118F”, the “effect of a mutation on the interaction” value was “decreasing interaction”.
With “Paxillin (Gallus gallus (Chicken)), P49024 Y31E;Y118E”, the “effect of a mutation on the interaction” value was “increasing interaction”.
